Source: patent publication KR20230078152A

Biological target: human PSMA (prostate-specific membrane antigen) expressed on LNCaP cells (human) (UniProt Q04609)
Assay: flow cytometry on LNCaP cells, isotype control 10μg/mL, 4℃

Chain of human PSMA (prostate-specific membrane antigen) expressed on LNCaP cells (human) (Q04609 whole entry): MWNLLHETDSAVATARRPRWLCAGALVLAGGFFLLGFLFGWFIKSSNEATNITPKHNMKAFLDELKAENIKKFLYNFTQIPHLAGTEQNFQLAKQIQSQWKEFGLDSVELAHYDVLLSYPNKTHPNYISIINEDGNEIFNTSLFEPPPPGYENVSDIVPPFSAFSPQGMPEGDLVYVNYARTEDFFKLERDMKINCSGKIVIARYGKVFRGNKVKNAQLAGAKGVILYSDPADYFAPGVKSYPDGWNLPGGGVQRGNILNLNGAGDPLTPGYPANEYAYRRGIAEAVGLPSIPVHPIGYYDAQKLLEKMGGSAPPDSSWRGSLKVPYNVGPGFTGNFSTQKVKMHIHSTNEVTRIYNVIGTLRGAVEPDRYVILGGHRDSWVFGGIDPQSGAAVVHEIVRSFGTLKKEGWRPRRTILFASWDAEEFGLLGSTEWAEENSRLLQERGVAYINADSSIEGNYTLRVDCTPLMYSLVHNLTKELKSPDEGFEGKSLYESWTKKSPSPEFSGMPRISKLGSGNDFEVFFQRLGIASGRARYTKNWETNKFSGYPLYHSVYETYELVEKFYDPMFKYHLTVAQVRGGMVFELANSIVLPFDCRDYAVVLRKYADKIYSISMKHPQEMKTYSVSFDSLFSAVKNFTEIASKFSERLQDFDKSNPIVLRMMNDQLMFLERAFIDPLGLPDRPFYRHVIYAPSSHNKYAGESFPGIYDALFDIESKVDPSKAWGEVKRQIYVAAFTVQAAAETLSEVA

- Mean FL: 3440 Mean FL
Substance: Mouse IgG Isotype Control (ThermoFisher, cat.No.02-6502) (antibody)
